This note sets out measurements from ChEMBL document CHEMBL5046279, “Discovery of a Partial Glucokinase Activator Clinical Candidate: Diethyl ((3-(3-((5-(Azetidine-1-carbonyl)pyrazin-2-yl)oxy)-5-isopropoxybenzamido)-1H-pyrazol-1-yl)methyl)phosphonate (BMS-820132)” (J Med Chem, 2022).

Substrate in the data set: CCOP(=O)(Cc1csc(NC(=O)c2cc(Oc3ccc(S(C)(=O)=O)cc3)cc(O[C@@H](C)COC)c2)n1)OCC
To be noted: Homo sapiens; filed as activator.

Description: Activation of human glucokinase assessed as decrease in glucose Km

B1: Hexokinase-4 (Homo sapiens), P35557 (protein)
chain: MLDDRARMEAAKKEKVEQILAEFQLQEEDLKKVMRRMQKEMDRGLRLETHEEASVKMLPTYVRSTPEGSEVGDFLSLDLGGTNFRVMLVKVGEGEEGQWSVKTKHQMYSIPEDAMTGTAEMLFDYISECISDFLDKHQMKHKKLPLGFTFSFPVRHEDIDKGILLNWTKGFKASGAEGNNVVGLLRDAIKRRGDFEMDVVAMVNDTVATMISCYYEDHQCEVGMIVGTGCNACYMEEMQNVELVEGDEGRMCVNTEWGAFGDSGELDEFLLEYDRLVDESSANPGQQLYEKLIGGKYMGELVRLVLLRLVDENLLFHGEASEQLRTRGAFETRFVSQVESDTGDRKQIYNILSTLGLRPSTTDCDIVRRACESVSTRAAHMCSAGLAGVINRMRESRSEDVMRITVGVDGSVYKLHPSFKERFHASVRRLTPSCEITFIESEEGSGRGAALVSAVACKKACMLGQ
For B1, the Michaelis constant (Km) came out at 2400 µM.

As a reminder, the Km is the concentration of substrate that gives half-maximal velocity.
